Key:
[1] = target: T1, hCD70-hFc (human, UniProt P32970 39-193, limits assumed); test: BLI, scFv on HIS1K sensor, hCD70-hFc analyte; row for 100 nM (same fit value in all rows)
T1 construct: the order here follows the printed name; not shown: human immunoglobulin Fc (hFc)
T1 sequence (looked up): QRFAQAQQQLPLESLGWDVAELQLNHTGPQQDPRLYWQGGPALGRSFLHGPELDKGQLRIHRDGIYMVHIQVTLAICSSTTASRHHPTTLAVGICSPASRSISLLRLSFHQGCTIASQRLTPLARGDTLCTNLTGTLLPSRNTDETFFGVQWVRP

[2] = target: T1, hCD70-hFc; test: BLI, scFv on HIS1K sensor, hCD70-hFc analyte; row for 50 nM (same fit value in all rows)
[3] = target: T1, hCD70-hFc; test: BLI, scFv on HIS1K sensor, hCD70-hFc analyte; row for 12.5 nM (same fit value in all rows)
[4] = target: T1, hCD70-hFc; test: BLI, scFv on HIS1K sensor, hCD70-hFc analyte; row for 25 nM (same fit value in all rows)

Kd [1]: 0.0214 µM | koff [1]: 0.0016 s⁻¹ | kon [1]: 74000 M⁻¹ s⁻¹ | Kd [2]: 0.0214 µM | koff [2]: 0.0016 s⁻¹ | kon [2]: 74000 M⁻¹ s⁻¹ | Kd [3]: 0.0214 µM | koff [3]: 0.0016 s⁻¹ | kon [3]: 74000 M⁻¹ s⁻¹ | Kd [4]: 0.0214 µM | koff [4]: 0.0016 s⁻¹ | kon [4]: 74000 M⁻¹ s⁻¹
B1: 靶向CD70 ScFv (scFv, V domains shown)
VH: EVQLVQSGPEVKKPGASVKVSCKASGYTFTDYYMNWVRQMHGKGLEWMGVINPYNGGTDYNQKFKGRVTITADKSTSTAYMELSSLRSEDTAVYYCARSVYDYPFDYWGQGTLVTVSS
VL: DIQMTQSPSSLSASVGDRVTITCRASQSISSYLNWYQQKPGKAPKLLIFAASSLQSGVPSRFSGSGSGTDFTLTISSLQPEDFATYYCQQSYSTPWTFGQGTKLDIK

Source: patent CN113817056A (CHONGQING PREC BIOTECH CO LTD; CHONGQING JINGZHUN BIO …, dated 2021)
